According to IntAct's records for PubMed 18166655:

B1: Caspase drICE (Drosophila melanogaster (Fruit fly)), O01382 (parent)
chain: MDATNNGESADQVGIRVGNPEQPNDHTDALGSVGSGGAGSSGLVAGSSHPYGSGAIGQLANGYSSPSSSYRKNVAKMVTDRHAAEYNMRHKNRGMALIFNHEHFEVPTLKSRAGTNVDCENLTRVLKQLDFEVTVYKDCRYKDILRTIEYAASQNHSDSDCILVAILSHGEMGYIYAKDTQYKLDNIWSFFTANHCPSLAGKPKLFFIQACQGDRLDGGVTMQRSQTETDGDSSMSYKIPVHADFLIAYSTVPGFYSWRNTTRGSWFMQSLCAELAANGKRLDILTLLTFVCQRVAVDFESCTPDTPEMHQQKQIPCITTMLTRILRFSDKQLAPAGRV
partner: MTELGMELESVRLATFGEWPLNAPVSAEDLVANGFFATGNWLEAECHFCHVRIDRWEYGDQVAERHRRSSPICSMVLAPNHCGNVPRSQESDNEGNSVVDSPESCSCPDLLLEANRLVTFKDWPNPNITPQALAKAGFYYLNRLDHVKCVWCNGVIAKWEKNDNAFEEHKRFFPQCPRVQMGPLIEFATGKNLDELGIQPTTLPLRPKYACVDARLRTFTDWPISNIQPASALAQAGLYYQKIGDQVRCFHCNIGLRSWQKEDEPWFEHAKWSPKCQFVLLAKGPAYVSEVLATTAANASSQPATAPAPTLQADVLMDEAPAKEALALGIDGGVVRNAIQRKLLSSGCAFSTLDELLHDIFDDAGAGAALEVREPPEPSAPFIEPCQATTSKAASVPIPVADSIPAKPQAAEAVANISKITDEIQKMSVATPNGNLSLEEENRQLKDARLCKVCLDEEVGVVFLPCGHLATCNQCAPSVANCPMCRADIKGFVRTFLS
B2: Death-associated inhibitor of apoptosis 2 (Drosophila melanogaster (Fruit fly)), Q24307 (parent)
chain: B1 partner
partner: B1 chain

Variants of: B1
Conditions: with diap2_drome Diap2, Q24307

Question: For MDATNNGESADQVGIRVGNPEQPNDHTDVLGSVGSGGAGSSGLVAGSSHPYGSGAIGQLANGYSSPSSSYRKNVAKMVTDRHAAEYNMRHKNRGMALIFNHEHFEVPTLKSRAGTNVDCENLTRVLKQLDFEVTVYKDCRYKDILRTIEYAASQNHSDSDCILVAILSHGEMGYIYAKDTQYKLDNIWSFFTANHCPSLAGKPKLFFIQACQGDRLDGGVTMQRSQTETDGDSSMSYKIPVHADFLIAYSTVPGFYSWRNTTRGSWFMQSLCAELAANGKRLDILTLLTFVCQRVAVDFESCTPDTPEMHQQKQIPCITTMLTRILRFSDKQLAPAGRV [A29V], which “effect of a mutation on the interaction” value is on record?
Answer: The value was “decreasing interaction strength”.

Variants of: B2
Conditions: with drice_drome Drice

Question: MTELGMELESVRLATFGEWPLNAPVSAEDLVANGFFATGNWLEAECHFCHVRIDRWEYGDQVAERHRRSSPICSMVLAPNHCGNVPRSQESDNEGNSVVDSPESCSCPDLLLEANRLVTFKDWPNPNITPQALAKAGFYYLNRLDHVKCVWCNGVIAKWEKNDNAFEEHKRFFPQCPRVQMGPLIEFATGKNLDELGIQPTTLPLRPKYACVDARLRTFTDWPISNIQPASALAQAGLYYQKIGDQVRGFHCNIGLRSWQKEDEPWFEHAKWSPKCQFVLLAKGPAYVSEVLATTAANASSQPATAPAPTLQADVLMDEAPAKEALALGIDGGVVRNAIQRKLLSSGCAFSTLDELLHDIFDDAGAGAALEVREPPEPSAPFIEPCQATTSKAASVPIPVADSIPAKPQAAEAVANISKITDEIQKMSVATPNGNLSLEEENRQLKDARLCKVCLDEEVGVVFLPCGHLATCNQCAPSVANCPMCRADIKGFVRTFLS [C249G] was tested. Which “effect of a mutation on the interaction” value did it give?
Answer: Its value is “disrupting interaction strength”.

Question: Which “effect of a mutation on the interaction” value does the source give for MTELGMELESVRLATFGEWPLNAPVSAEDLVANGFFATGNWLEAECHFCHVRIDRWEYGDQVAERHRRSSPICSMVLAPNHCGNVPRSQESDNEGNSVVDSPESCSCPDLLLEANRLVTFKDWPNPNITPQALAKAGFYYLNRLDHVKGVWCNGVIAKWEKNDNAFEEHKRFFPQCPRVQMGPLIEFATGKNLDELGIQPTTLPLRPKYACVDARLRTFTDWPISNIQPASALAQAGLYYQKIGDQVRCFHCNIGLRSWQKEDEPWFEHAKWSPKCQFVLLAKGPAYVSEVLATTAANASSQPATAPAPTLQADVLMDEAPAKEALALGIDGGVVRNAIQRKLLSSGCAFSTLDELLHDIFDDAGAGAALEVREPPEPSAPFIEPCQATTSKAASVPIPVADSIPAKPQAAEAVANISKITDEIQKMSVATPNGNLSLEEENRQLKDARLCKVCLDEEVGVVFLPCGHLATCNQCAPSVANCPMCRADIKGFVRTFLS [C149G] here?
Answer: The value was “with no effect”.

Question: For MTELGMELESVRLATFGEWPLNAPVSAEDLVANGFFATGNWLEAECHFCHVRIDRWEYGDQVAERHRRSSPICSMVLAPNHCGNVPRSQESDNEGNSVVDSPESCSCPDLLLEANRLVTFKDWPNPNITPQALAKAGFYYLNRLDHVKCVWCNGVIAKWEKNDNAFEEHKRFFPQCPRVQMGPLIEFATGKNLDELGIQPTTLPLRPKYACVDARLRTFTDWPISNIQPASALAQAGLYYQKIGDQVRCFHCNIGLRSWQKEAEPWFEHAKWSPKCQFVLLAKGPAYVSEVLATTAANASSQPATAPAPTLQADVLMDEAPAKEALALGIDGGVVRNAIQRKLLSSGCAFSTLDELLHDIFDDAGAGAALEVREPPEPSAPFIEPCQATTSKAASVPIPVADSIPAKPQAAEAVANISKITDEIQKMSVATPNGNLSLEEENRQLKDARLCKVCLDEEVGVVFLPCGHLATCNQCAPSVANCPMCRADIKGFVRTFLS [D263A], which “effect of a mutation on the interaction” value is on record?
Answer: The value was “disrupting interaction strength”.

Question: With MTELGMELESVRLATFGEWPLNAPVSAEDLVANGFFATGNWLEAECHFCHVRIDRWEYGDQVAERHRRSSPICSMVLAPNHCGNVPRSQESDNEGNSVVESPESCSCPDLLLEANRLVTFKDWPNPNITPQALAKAGFYYLNRLDHVKCVWCNGVIAKWEKNDNAFEEHKRFFPQCPRVQMGPLIEFATGKNLDELGIQPTTLPLRPKYACVDARLRTFTDWPISNIQPASALAQAGLYYQKIGDQVRCFHCNIGLRSWQKEDEPWFEHAKWSPKCQFVLLAKGPAYVSEVLATTAANASSQPATAPAPTLQADVLMDEAPAKEALALGIDGGVVRNAIQRKLLSSGCAFSTLDELLHDIFDDAGAGAALEVREPPEPSAPFIEPCQATTSKAASVPIPVADSIPAKPQAAEAVANISKITDEIQKMSVATPNGNLSLEEENRQLKDARLCKVCLDEEVGVVFLPCGHLATCNQCAPSVANCPMCRADIKGFVRTFLS [D100E] as the variant, how does the “effect of a mutation on the interaction” value read?
Answer: The value was “disrupting interaction strength”.

Question: For MTELGMELESVRLATFGEWPLNAPVSAEDLVANGFFATGNWLEAECHFCHVRIDRWEYGDQVAERHRRSSPICSMVLAPNHCGNVPRSQESDNEGNSVVDSPESCSCPDLLLEANRLVTFKDWPNPNITPQALAKAGFYYLNRLDHVKCVWCNGVIAKWEKNANAFEEHKRFFPQCPRVQMGPLIEFATGKNLDELGIQPTTLPLRPKYACVDARLRTFTDWPISNIQPASALAQAGLYYQKIGDQVRCFHCNIGLRSWQKEDEPWFEHAKWSPKCQFVLLAKGPAYVSEVLATTAANASSQPATAPAPTLQADVLMDEAPAKEALALGIDGGVVRNAIQRKLLSSGCAFSTLDELLHDIFDDAGAGAALEVREPPEPSAPFIEPCQATTSKAASVPIPVADSIPAKPQAAEAVANISKITDEIQKMSVATPNGNLSLEEENRQLKDARLCKVCLDEEVGVVFLPCGHLATCNQCAPSVANCPMCRADIKGFVRTFLS [D163A], which “effect of a mutation on the interaction” value is on record?
Answer: The value was “with no effect”.
